Experimental data from paper PMC8244865, “Recruitment of phospholipase Cγ1 to the non-structural membrane protein pK15 of Kaposi Sarcoma-associated herpesvirus promotes its Src-dependent phosphorylation” (PLoS Pathogens, 2021).

Columns and labels:
[1] = test system: full length PLCγ1 R586L+R694L; experiment: GST-pulldown, full-length PLCγ1 double mutant; conditions: phosphorylated; binding eliminated for SA domain but not full length
Protocol: Fig 3 Contribution of individual PLCγ1 SH2 domains to the interaction with phosphorylated pK15. The pK15 CT fused to GST, its Y^481F mutant, or GST alone were bound to glutathione beads, phosphorylated in vitro (+) or left unphosphorylated (-), and a GST pulldown was performed 32h after transfection into HEK-293T cells of expression vectors for S-tagged full-length PLCγ1 (FL) (A) or PLCγ1 SA (B) containing the indicated mutations. (C) pK15 CT WT, its Y^481F mutant or GST were bound to glutathione beads, phosphorylated in vitro (+) or left unphosphorylated (-), and used for a GST pulldown assay 32h after transfecting HEK 293T cells with expression vectors for S-tagged individual PLCγ1 nSH2 or cSH2 domains. […]
HEK293T cells were washed once with cold PBS 30 hours after transfection, lysed in IP buffer (50 mM Tris pH7.6, 60 mM NaCl, 6.25 mM EDTA, 1% (v/v) glycerol, 0.04% (v/v) NP-40) on ice for 30 minutes, sonicated shortly and cleared by centrifugation for 10 minutes at 20.000g, 4°C. […] Beads were then washed 5 times in 500 μl IP buffer (or for purified proteins IP buffer with 200 mM NaCl), suspended in 10 μl of 5x Laemmli sample buffer (60 mM Tris pH6.8, 24% (v/v) glycerol, 2% (v/v) SDS, 5% (v/v) β-mercaptoethanol, 0.01% Bromphenol Blue) and analysed by western blot.

PLCγ1 SA domain = experiment: AlphaLISA, PLCγ1 SA; type: binding; conditions: phosphorylated by 2xStrep-Src, 300 nM each protein, 1 h room temperature, 615 nm, at least two independent experiments
Protocol: (§1) Fig 4 The PLCγ1 cSH2 domain is required for the binding of PLCγ1 to phosphorylated pK15 in vitro and may serve as a dominant-negative inhibitor. GST-fused pK15 cytoplasmic tail WT (A), or its truncated mutant N2 [51] (B), were phosphorylated in vitro by 2xStrep-Src and an AlphaLISA was performed with the indicated His-tagged fragments of PLCγ1. Mean and standard deviation from at least two independent experiments with two technical replicates each are depicted. GST fusion proteins of the N1 (C) or N2 (D) truncation mutants of the pK15 cytoplasmic tail were phosphorylated in vitro by 2xStrep-Src and their interaction with recombinant purified PLCγ1 tSH2 (tandem SH2) or SA (γ-specific array) domains was measured by AlphaLISA in the presence of increasing concentrations (300 nM, 600 nM, 900 nM, 1200 nM) of the purified PLCγ1 cSH2. […] After 48h lysates were collected and analysed by Western blot using an antibody to PLCγ1 pY^783 to assess the level of PLCγ1 phosphorylation. (F) The intensities of the pPLCγ1 bands shown in panel E were quantified by densitometry, normalized to the values obtained with the empty vector (EV) in the presence of pK15, and plotted as relative values. […]
(§2) His-tagged PLCγ1 (SA, tSH2 or the isolated SH2 domains) was incubated at room temperature with GST-tagged K15P or its mutants for 1 hour. […] Emission at 615 nm was detected on BioTek Synergy 2 plate reader.

[2] = test system: PLCγ1 SA and PLCγ1 tSH2, nSH2 R^586L mutant; experiment: AlphaLISA, SA and tSH2 R586L mutant; type: binding; conditions: phosphorylated; 300 nM each protein; versus wt PLCγ1 SA and tSH2
Protocol: as §1, §2

PLCγ1 cSH2 R^694L = experiment: AlphaLISA, isolated PLCγ1 cSH2 R694L; type: binding; conditions: phosphorylated; 300 nM each protein
Protocol: as §1, §2

B1: pK15 CT^WT: pK15 cytoplasmic tail fused to GST at its N-terminal end, phosphorylated in vitro by Src (protein)
chain: SQLLNEVELQEVNRDPPNVFGYASILVSGAEESREPSPQPDQSGMSILRVDGGSAFRIDTAQAATQPTDDLYEEVLFPRN
modifications: tyrosine-phosphorylated in vitro by Src; sites not stated for this construct; left off: GST, N-terminal, kept
In the case of B1, the “binding of double mutant (GST-pulldown)” value [1] is reported as “not to full length PLCγ1”, the “interaction (AlphaLISA)” value (PLCγ1 SA domain) is reported as “does interact with the PLCγ1 SA” and the “interaction (AlphaLISA)” value (PLCγ1 SA domain; listed as pK15 CT^N2) is reported as “only bound weakly to PLCγ1 SA”. For the same molecule, the “interaction (AlphaLISA)” value [2] was “to a similar extent as wt PLCγ1 SA and PLCγ1 tSH2” and the “interaction (AlphaLISA)” value (PLCγ1 cSH2 R^694L) was “abolished”.
